Reference: the supplement of paper PMC9112550, “Optimization of the antimicrobial peptide Bac7 by deep mutational scanning” (BMC Biology, 2022)

Each sequence was assayed on Escherichia coli TOP10 (assay: shrunken log2 fold change of peptide-encoding DNA abundance (4.5 h post-induction vs induction); higher = less antimicrobial activity (less host growth inhibition)). Details: time post-induction: 4.5 h; library: site-saturation at positions 5, 18, 19, 20.
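Note: peptides expressed intracellularly from a pBAD plasmid library in pooled LB shake-flask culture, induced with 0.3% L-arabinose, DNA abundance read by NGS, three biological replicates, DESeq2 with apeglm shrinkage.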

Point of comparison: RRIRARPPRLPRPRPRPWQHPRP, “shrunken log2 fold change” value 0.0196. Against it:
- RRIRGRPPRLPRPRPRPLIQPRP — higher, 0.827
- RRIRARPPRLPRPRPRPPDCPRP — higher, 0.56
- RRIRHRPPRLPRPRPRPTNNPRP — lower, -0.467
- RRIRTRPPRLPRPRPRPLWNPRP — lower, -0.44
- RRIRKRPPRLPRPRPRPNNYPRP — lower, -0.259
- RRIRMRPPRLPRPRPRPTNKPRP — within 0.2 log units, 0.111
- RRIRTRPPRLPRPRPRPDMQPRP — higher, 1.96
- RRIRCRPPRLPRPRPRPSICPRP — lower, -0.194
- RRIRSRPPRLPRPRPRPTELPRP — within 0.2 log units, -0.0967
- RRIRFRPPRLPRPRPRPWLIPRP — lower, -0.441
- RRIRWRPPRLPRPRPRPEQHPRP — higher, 0.339
- RRIRSRPPRLPRPRPRPADTPRP — within 0.2 log units, -0.0432
- RRIRKRPPRLPRPRPRPCFQPRP — within 0.2 log units, -0.112
- RRIRVRPPRLPRPRPRPIKHPRP — lower, -0.505
- RRIRMRPPRLPRPRPRPMTVPRP — within 0.2 log units, 0.0944
- RRIRSRPPRLPRPRPRPNDYPRP — lower, -1.18
- RRIRPRPPRLPRPRPRPEYLPRP — within 0.2 log units, 0.0461
- RRIRFRPPRLPRPRPRPEEGPRP — within 0.2 log units, 0.00408
- RRIRNRPPRLPRPRPRPPMQPRP — within 0.2 log units, 0.0237
- RRIRARPPRLPRPRPRPNVLPRP — within 0.2 log units, 0.00594
- RRIRVRPPRLPRPRPRPAFDPRP — lower, -0.339
- RRIRLRPPRLPRPRPRPKLMPRP — within 0.2 log units, -0.162
- RRIRTRPPRLPRPRPRPEFHPRP — lower, -0.351
- RRIRERPPRLPRPRPRPYNFPRP — lower, -0.254
- RRIRERPPRLPRPRPRPNLVPRP — within 0.2 log units, -0.0264
- RRIRFRPPRLPRPRPRPNDEPRP — lower, -0.648
- RRIRTRPPRLPRPRPRPSLSPRP — within 0.2 log units, 0.00222
- RRIRKRPPRLPRPRPRPTDNPRP — within 0.2 log units, 0.219
- RRIRERPPRLPRPRPRPRDVPRP — within 0.2 log units, 0.0772
- RRIRWRPPRLPRPRPRPVQIPRP — higher, 0.278
- RRIRGRPPRLPRPRPRPFRMPRP — within 0.2 log units, 0.00538
- RRIRFRPPRLPRPRPRPDKFPRP — within 0.2 log units, -0.0567
- RRIRGRPPRLPRPRPRPQSMPRP — higher, 0.276
- RRIRRRPPRLPRPRPRPRMTPRP — higher, 0.295
- RRIRIRPPRLPRPRPRPCHFPRP — within 0.2 log units, -0.131
- RRIRPRPPRLPRPRPRPFISPRP — lower, -0.706
- RRIRPRPPRLPRPRPRPDWLPRP — higher, 0.288
- RRIRERPPRLPRPRPRPNGKPRP — within 0.2 log units, -0.0394
- RRIRNRPPRLPRPRPRPCNEPRP — within 0.2 log units, -0.0138
- RRIRWRPPRLPRPRPRPTMEPRP — within 0.2 log units, 0.00667
- RRIRPRPPRLPRPRPRPQRDPRP — within 0.2 log units, 0.116
- RRIRDRPPRLPRPRPRPGFEPRP — within 0.2 log units, 0.175
- RRIRCRPPRLPRPRPRPADQPRP — within 0.2 log units, -0.0916
- RRIRNRPPRLPRPRPRPVSTPRP — lower, -0.272
- RRIRFRPPRLPRPRPRPWWGPRP — within 0.2 log units, -0.00459
- RRIRARPPRLPRPRPRPWYMPRP — lower, -0.958
- RRIRQRPPRLPRPRPRPEVMPRP — within 0.2 log units, 0.0824
- RRIRPRPPRLPRPRPRPYFPPRP — lower, -0.26
- RRIRPRPPRLPRPRPRPNKKPRP — lower, -0.238
- RRIRSRPPRLPRPRPRPEQEPRP — within 0.2 log units, 0.0257
- RRIRHRPPRLPRPRPRPDREPRP — within 0.2 log units, 0.0062
- RRIRGRPPRLPRPRPRPNCKPRP — within 0.2 log units, 0.21
- RRIRRRPPRLPRPRPRPRFTPRP — higher, 0.264
- RRIRRRPPRLPRPRPRPKIQPRP — within 0.2 log units, 0.0197
- RRIRYRPPRLPRPRPRPELTPRP — within 0.2 log units, 0.075
- RRIRRRPPRLPRPRPRPPWGPRP — within 0.2 log units, 0.0337
- RRIRKRPPRLPRPRPRPFWHPRP — within 0.2 log units, 0.00192
- RRIRKRPPRLPRPRPRPWNPPRP — within 0.2 log units, 0.159
- RRIRNRPPRLPRPRPRPPKRPRP — higher, 0.497
- RRIRGRPPRLPRPRPRPTFDPRP — higher, 0.548
- RRIRCRPPRLPRPRPRPTPTPRP — higher, 0.982
- RRIRNRPPRLPRPRPRPRYVPRP — lower, -0.265
- RRIRGRPPRLPRPRPRPFRDPRP — within 0.2 log units, 0.0814
- RRIRWRPPRLPRPRPRPRGTPRP — higher, 0.873
- RRIRDRPPRLPRPRPRPDYYPRP — within 0.2 log units, 0.00235
- RRIRARPPRLPRPRPRPWGAPRP — higher, 0.401
- RRIRKRPPRLPRPRPRPTEFPRP — within 0.2 log units, 0.00591
- RRIRRRPPRLPRPRPRPFIQPRP — within 0.2 log units, -0.0404
- RRIRTRPPRLPRPRPRPYRDPRP — lower, -0.383
- RRIRTRPPRLPRPRPRPDKNPRP — within 0.2 log units, -0.143
- RRIRYRPPRLPRPRPRPDGSPRP — lower, -0.317
- RRIRKRPPRLPRPRPRPLLGPRP — higher, 0.628
- RRIRMRPPRLPRPRPRPLINPRP — lower, -0.231
- RRIRTRPPRLPRPRPRPYFVPRP — lower, -0.258
